These results are taken from patent publication EP4717706A1.

The target of test [1] is VLP2 (virus-like particles, capsid protein particles of AAV serotype 2) (AAV serotype 2 (AAV2)) (UniProt P03135). Description: ELISA on immobilised VLP2 (culture supernatant); A450 after 1:1 0.1 M glycine-NaOH pH 10.0, 15 min, 51.3°C divided by A450 untreated.
Test [2] has the same target. Description: ELISA on immobilised VLP2 (culture supernatant); A450 after 1:1 1 M NaOH, 15 min, 30°C divided by A450 untreated.
Test [3] shares this target. Briefly: ELISA on immobilised VLP2 (purified protein, 5 µg/mL); A450 after 1:1 1 M NaOH with 1 mM CaCl2, 30°C, 60 min divided by A450 at 0 time.
The target is the same in test [4]. Description: ELISA on immobilised VLP2 (purified protein, 5 µg/mL); A450 after 1:1 1 M NaOH with 1 mM CaCl2, 30°C, 30 min divided by A450 at 0 time. A general note: An ELISA detects its analyte on a solid surface through an enzyme-linked reagent.
For test [5] the target is unchanged. Briefly: ELISA on immobilised VLP2 (purified protein, 5 µg/mL); A450 after 1:1 1 M NaOH with 1 mM CaCl2, 30°C, 60 min divided by A450 at 0 time. The source holds these as a separate data set.
For test [6] the target is unchanged. The test is described as above. This is another data set of the same source.
Test [7] shares this target. Description: ELISA on immobilised VLP2 (purified protein, 5 µg/mL); A450 after 1:1 1 M NaOH with 1 mM CaCl2, 30°C, 30 min divided by A450 at 0 time. This is another data set of the same source.
For test [8] the target is unchanged. Briefly: ELISA on immobilised VLP2 (purified protein, 5 µg/mL); A450 after 1:1 1 M NaOH with 1 mM CaCl2, 30°C, 20 min divided by A450 at 0 time.
Test [9] has the same target. Briefly: ELISA on immobilised VLP2 (purified protein, 5 µg/mL); start of alkali treatment, the reference of the ratio.
The target is the same in test [10]. Description: ELISA on immobilised VLP2 (purified protein, 5 µg/mL); A450 after 1:1 1 M NaOH with 1 mM CaCl2, 30°C, 30 min divided by A450 at 0 time. This is another data set of the same source.
Test [11] has the same target. Description: ELISA on immobilised VLP2 (purified protein, 5 µg/mL); A450 after 1:1 1 M NaOH with 1 mM CaCl2, 30°C, 60 min divided by A450 at 0 time. The source holds these as a separate data set.
For test [12] the target is unchanged. Briefly: ELISA on immobilised VLP2 (purified protein, 5 µg/mL); A450 after 1:1 1 M NaOH with 1 mM CaCl2, 30°C, 45 min divided by A450 at 0 time.
For test [13] the target is unchanged. Description: ELISA on immobilised VLP2 (purified protein, 5 µg/mL); A450 after 1:1 1 M NaOH with 1 mM CaCl2, 30°C, 20 min divided by A450 at 0 time. This is another data set of the same source.
Test [14] shares this target. Briefly: ELISA on immobilised VLP2 (purified protein); A450 after 1:1 0.5 M NaOH, 30°C, 30 min divided by A450 at 0 time.
The target is the same in test [15]. Described as above. This is another data set of the same source.
The target is the same in test [16]. Description: ELISA on immobilised VLP2 (purified protein); A450 after 1:1 0.5 M NaOH, 30°C, 60 min divided by A450 at 0 time.
Test [17] has the same target. Description: ELISA on immobilised VLP2 (purified protein); start of alkali treatment, the reference of the ratio.
Test [18] has the same target. Briefly: ELISA on immobilised VLP2 (purified protein); A450 after 1:1 0.5 M NaOH, 30°C, 90 min divided by A450 at 0 time.
For test [19] the target is unchanged. Description: ELISA on immobilised VLP2 (culture supernatant, anti-His detection); A450 after 1:1 0.5 M NaOH, 30 min, 30°C divided by A450 untreated.

Chain of UniProt P03135 (P03135 whole entry): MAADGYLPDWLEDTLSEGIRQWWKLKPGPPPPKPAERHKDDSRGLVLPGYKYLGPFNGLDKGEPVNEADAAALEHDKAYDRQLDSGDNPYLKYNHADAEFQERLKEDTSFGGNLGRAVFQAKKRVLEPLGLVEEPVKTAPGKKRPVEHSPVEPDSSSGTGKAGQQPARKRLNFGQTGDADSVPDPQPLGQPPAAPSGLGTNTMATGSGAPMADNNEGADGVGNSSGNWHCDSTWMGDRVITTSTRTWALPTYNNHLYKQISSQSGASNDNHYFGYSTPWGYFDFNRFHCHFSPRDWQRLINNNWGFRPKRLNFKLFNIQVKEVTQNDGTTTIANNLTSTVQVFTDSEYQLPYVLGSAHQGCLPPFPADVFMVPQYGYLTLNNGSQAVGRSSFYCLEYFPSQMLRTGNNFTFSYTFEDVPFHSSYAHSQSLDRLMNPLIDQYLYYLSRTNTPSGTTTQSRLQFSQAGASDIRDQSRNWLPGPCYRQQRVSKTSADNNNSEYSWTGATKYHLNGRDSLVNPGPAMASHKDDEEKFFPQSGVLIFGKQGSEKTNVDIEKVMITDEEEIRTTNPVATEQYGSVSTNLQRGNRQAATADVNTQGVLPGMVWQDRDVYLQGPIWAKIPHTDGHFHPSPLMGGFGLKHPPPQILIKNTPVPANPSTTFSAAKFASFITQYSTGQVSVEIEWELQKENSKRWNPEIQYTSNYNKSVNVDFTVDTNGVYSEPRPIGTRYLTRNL

B1: AVR8g with Y331H, F379S, K467N, A491T (receptor)
chain: MGSAGESDQITLPKNEVQLNAHVLQEPPKGETCTYDWQLITHPRDYSGEMEGEHSQILKLSNLTPGLYESKVIVEGQNAHSEGYVNVTVEPEPRKNRPPIAIVSPQFQEISLPTTSTVIDGSQSTDDDKIVQYHWEELKGPLREEKISEDTAILKLSNLVPGNYTFRLTVVDSDGATDSTTTNLTVNKAVDHHHHHH
Regarding B1, the Remaining activity [%] in test [1] was found to be 28.1%.

B2: AVR28 (AVR25c with I366F, V394A, K455R) (receptor)
chain: MGSAGESDQITLPKHEAQLKVYVLLVPPKGEASTYDWQLITHPRDYSGEMEGEHSQFLKLSNLTPGLYEYRAVVEGQNAHSEGYANVTVEPGPRKNRPPIAIVSPQFQEISLPTTSAVIDGSQSTDDDKIVQYHWEELKGPLREERISEDTPILKLSNLVPGNYTFRLTVVDTDGATDSTTADLTVNKAVDHHHHHH
With B2, the Remaining activity [%] came to 71.9% in [2]; 6.29% in test [3]; 22.5% in [4]; 1.22% in test [5]; 3% in test [6]; 42% in test [7]. Further, the figures for the Remaining activity [%] in test [8] and in test [9] were 42.5% and 100%, respectively.

B3: AVR31 (AVR25c with G314D, I366F, V394A, K455R, K497E, V499I) (receptor)
chain: MGSADESDQITLPKHEAQLKVYVLLVPPKGEASTYDWQLITHPRDYSGEMEGEHSQFLKLSNLTPGLYEYRAVVEGQNAHSEGYANVTVEPGPRKNRPPIAIVSPQFQEISLPTTSAVIDGSQSTDDDKIVQYHWEELKGPLREERISEDTPILKLSNLVPGNYTFRLTVVDTDGATDSTTADLTVNEAIDHHHHHH
With B3, the Remaining activity [%] in [10] stood at 53.8%; in test [3] it was 10.6%; in test [11] it was 13.3%; in [7], 48.3%; in test [9], 100%.

B4: AVR29b (AVR25c with G314D, I366F, V394A, K455R) (receptor)
chain: MGSADESDQITLPKHEAQLKVYVLLVPPKGEASTYDWQLITHPRDYSGEMEGEHSQFLKLSNLTPGLYEYRAVVEGQNAHSEGYANVTVEPGPRKNRPPIAIVSPQFQEISLPTTSAVIDGSQSTDDDKIVQYHWEELKGPLREERISEDTPILKLSNLVPGNYTFRLTVVDTDGATDSTTADLTVNKAVDHHHHHH
Consider B4, for which the Remaining activity [%] is 1.31% in test [12]; 58.7% in [13]; 1.08% in test [5]; 63.7% in [8]; 100% in test [9].

B5: AVR29d (AVR25c with I366F, V394A, K455R, V499I) (receptor)
chain: MGSAGESDQITLPKHEAQLKVYVLLVPPKGEASTYDWQLITHPRDYSGEMEGEHSQFLKLSNLTPGLYEYRAVVEGQNAHSEGYANVTVEPGPRKNRPPIAIVSPQFQEISLPTTSAVIDGSQSTDDDKIVQYHWEELKGPLREERISEDTPILKLSNLVPGNYTFRLTVVDTDGATDSTTADLTVNKAIDHHHHHH
Take B5: the Remaining activity [%] in test [12] was 4.47%; in test [13] it was 63%; in [5], 1.06%; in test [8], 68.6%; in test [9] it was 100%.

B6: AVR25a (AVR21 with N329K, E401G, T426A, A461P) (receptor)
chain: MGSAGESDQITLPKHEAQLKVYVLLVPPKGEASTYDWQLITHPRDYSGEMEGEHSQILKLSNLTPGLYEYRAVVEGQNAHSEGYVNVTVEPGPRKNRPPIAIVSPQFQEISLPTTSAVIDGSQSTDDDKIVQYHWEELKGPLREEKISEDTPILKLSQLVPGNYTFRLTVVDTDGATDSTTADLTVNKAVDHHHHHH
For B6, the Remaining activity [%] is 100% in test [14]; 62.3% in test [15]; 47.9% in test [16]; 100% in test [17]; 0% in [18].

B7: AVR29c (AVR25c with I366F, V394A, K455R, K497E) (receptor)
chain: MGSAGESDQITLPKHEAQLKVYVLLVPPKGEASTYDWQLITHPRDYSGEMEGEHSQFLKLSNLTPGLYEYRAVVEGQNAHSEGYANVTVEPGPRKNRPPIAIVSPQFQEISLPTTSAVIDGSQSTDDDKIVQYHWEELKGPLREERISEDTPILKLSNLVPGNYTFRLTVVDTDGATDSTTADLTVNEAVDHHHHHH
Take B7: the Remaining activity [%] was found to be 15.7% in test [3]; 1.93% in [12]; 78.7% in [13]; 2.39% in test [5]; 57.7% in test [7]; 93.2% in [8]. For the same molecule, the Remaining activity [%] in [9] was 100%.

B8: AAV-binding protein AVR21 (receptor)
chain: MGSAGESDQITLPKHEAQLNVYVLLVPPKGEASTYDWQLITHPRDYSGEMEGEHSQILKLSNLTPGLYEYRAVVEGQNAHSEGYVNVTVEPEPRKNRPPIAIVSPQFQEISLPTTSTVIDGSQSTDDDKIVQYHWEELKGPLREEKISEDTAILKLSQLVPGNYTFRLTVVDTDGATDSTTADLTVNKAVDHHHHHH
With B8, the Remaining activity [%] in test [10] came to 1.53%; in test [19], 26.2%; in test [14], 16.9%; in [11], 0.694%; in test [16] it was 0%; in test [17] it was 100%. For the same molecule, the Remaining activity [%] in test [9] was determined as 100%.

B9: AVR29a (AVR25c with I366F, V394A, K455R, T474R) (receptor)
chain: MGSAGESDQITLPKHEAQLKVYVLLVPPKGEASTYDWQLITHPRDYSGEMEGEHSQFLKLSNLTPGLYEYRAVVEGQNAHSEGYANVTVEPGPRKNRPPIAIVSPQFQEISLPTTSAVIDGSQSTDDDKIVQYHWEELKGPLREERISEDTPILKLSNLVPGNYRFRLTVVDTDGATDSTTADLTVNKAVDHHHHHH
With B9, the Remaining activity [%] was 24.2% in test [4], 5.07% in [6] and 100% in test [9].
